Assay results as given in patent US20190300625A1 (Regeneron, published 2019).

Legend:
[1] = biological target: human TMPRSS2 (NP_005647.3 with a V160M) expressed on MDCK/Tet-on/hTMPRSS2 cells (human, UniProt O15393 1-492); test: flow cytometry on MDCK/Tet-on/hTMPRSS2 cells, doxycycline-induced
[2] = biological target: cynomolgous monkey TMPRSS2 (XP_015302311.1 with S129L, N251S, I415V, R431Q, D492G) expressed on … (cynomolgous monkey; SEQ ID NO …); test: flow cytometry on MDCK/Tet-on/mfTMPRSS2 cells, doxycycline-induced
Chain of cynomolgous monkey TMPRSS2 (XP_015302311.1 with S129L, N251S, I415V, R431Q, D492G) expressed on … (cynomolgous monkey; SEQ ID NO …) (chain, as listed by the source S129L N251S I415V R431Q D492G S129L N251S I415V R431Q D492G limits assumed): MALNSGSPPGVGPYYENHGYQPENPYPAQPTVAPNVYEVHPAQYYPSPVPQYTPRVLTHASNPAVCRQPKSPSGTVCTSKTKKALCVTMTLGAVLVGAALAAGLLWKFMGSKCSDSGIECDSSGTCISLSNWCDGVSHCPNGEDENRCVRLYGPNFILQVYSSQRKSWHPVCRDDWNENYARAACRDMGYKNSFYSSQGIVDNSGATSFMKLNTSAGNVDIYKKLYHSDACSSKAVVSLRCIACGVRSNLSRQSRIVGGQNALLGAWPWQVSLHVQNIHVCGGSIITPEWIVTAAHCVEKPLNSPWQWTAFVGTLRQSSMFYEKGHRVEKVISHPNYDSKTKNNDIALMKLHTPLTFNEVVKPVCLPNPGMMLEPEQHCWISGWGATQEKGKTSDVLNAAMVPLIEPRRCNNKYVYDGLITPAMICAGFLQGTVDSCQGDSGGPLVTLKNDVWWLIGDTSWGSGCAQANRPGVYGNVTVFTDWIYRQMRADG

Chain of human TMPRSS2 (NP_005647.3 with a V160M) expressed on MDCK/Tet-on/hTMPRSS2 cells (O15393 whole entry V160M): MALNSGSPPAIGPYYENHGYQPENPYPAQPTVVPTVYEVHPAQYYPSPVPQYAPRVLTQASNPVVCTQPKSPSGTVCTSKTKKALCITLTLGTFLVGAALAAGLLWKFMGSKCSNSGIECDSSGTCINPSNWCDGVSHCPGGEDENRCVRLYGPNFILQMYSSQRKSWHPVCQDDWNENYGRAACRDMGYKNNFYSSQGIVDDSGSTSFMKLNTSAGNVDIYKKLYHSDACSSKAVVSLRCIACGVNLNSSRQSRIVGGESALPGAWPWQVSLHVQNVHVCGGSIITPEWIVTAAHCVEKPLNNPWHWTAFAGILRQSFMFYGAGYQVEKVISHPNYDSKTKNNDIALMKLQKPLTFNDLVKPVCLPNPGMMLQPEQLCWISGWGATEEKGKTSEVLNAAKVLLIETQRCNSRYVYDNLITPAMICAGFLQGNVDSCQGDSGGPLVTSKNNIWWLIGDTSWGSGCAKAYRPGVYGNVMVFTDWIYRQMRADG

B1: H1H7017N (antibody, human IgG1, kappa, V domains shown)
VH: QVQLVESGGGVVQPGRSLRLSCAASGFTFSSYGMHWVRQSPGKGLEWVAVIWNDGSYVYYADSVKGRFTISRDISKNTLFLQMNSLRAEDTAVYYCAREGEWVLYYFDYWGQGTLVTVSS
VL: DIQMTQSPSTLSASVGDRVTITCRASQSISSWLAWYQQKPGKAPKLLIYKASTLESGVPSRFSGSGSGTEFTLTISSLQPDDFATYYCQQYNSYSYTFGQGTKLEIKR
notes: also called anti-TMPRSS2 mAb; anti-hTMPRSS2 antibody
Work on B1 yielded an EC50 [1] of 0.46 nM and an EC50 [2] of 1.06 nM.
